Values quoted from earlier work, collected in publication PMC6396024, “Artemin and an Artemin-Derived Peptide, Artefin, Induce Neuronal Survival, and Differentiation Through Ret and NCAM” (Frontiers in Molecular Neuroscience, 2019).

Test system: NCAM
Conditions: ref Paratcha et al., 2003; Nielsen et al., 2009; cited from earlier work
Source text: We have previously shown that the GDNF-binding site for NCAM is localized to the heel region and that gliafin, a GDNF-derived peptide covering this region, binds to NCAM ([Nielsen et al., 2009]). As the tertiary structure of ARTN is similar to that of GDNF, we speculated that the artefin motif also contains a potential binding site for NCAM. […] Whether NCAM can be an alternative receptor for other GFLs has been establish ...

B1: GDNF: glial cell line-derived neurotrophic factor (protein, UniProt P39905 78-211, looked up)
Glial cell line-derived …: SPDKQMAVLPRRERNRQAAAANPENSRGKGRRGQRGKNRGCVLTAIHLNVTDLGLGYETKEELIFRYCSGSCDAAETTYDKILKNLSRNRRLVSDKVGQACCRPIAFDDDLSFLDDNLVYHILRKHSAKRCGCI
  interaction with NCAM: interacts directly with NCAM
